According to US20260124312A1 (Bicycle, published 2026):
*1 amine or outer side, *2 acyl side, *3 side chain or, on linkers, in order; H or OH if unused. Bridges are numbered along the chain shown (N, C = ends). Where no end group is shown, it is not given here. [ ]: non-standard residue; d: D form. The star is where a group is joined. DM1‑SS‑ = DM1-SS- (SPDB) linker/toxin, COc1cc2cc(c1Cl)N(C)C(=O)C[C@H](OC(=O)[C@H](C)N(C)C(=O)CCSSCCCC(=O)*)[C@]1(C)O[C@H]1[C@H](C)[C@@H]1C[C@@](O)(NC(=O)O1)[C@H](OC)/C=C/C=C(\C)C2; TATA = O=C(CC[*:1])N1CN(C(=O)CC[*:2])CN(C(=O)CC[*:3])C1; DM1‑SS(SO3H)‑ = DM1-SS(SO3H)- (SO3H-SPDB) linker/toxin; DM1‑SS‑(Me)‑ = DM1-SS-(Me)- (SPP) linker/toxin; PABC = O=C(OCc1ccc(N[*:1])cc1)[*:2]; Glutaryl = O=C(CCCC(=O)[*:2])[*:1]; hArg = N=C(N)NCCCC[C@H](N)C(=O)O; Cit = NC(=O)NCCC[C@H](N)C(=O)O; βAla = NCCC(=O)O; Sar = CNCC(=O)O

Legend:
[1] = target: Human EphA2 (in house, 0.95 mol biotin/monomer) (Human) (UniProt P29317); experiment: SPR (Biacore), biotinylated human EphA2 on streptavidin chip
Chain of Human EphA2 (in house, 0.95 mol biotin/monomer) (Human) (P29317 25-534 limits assumed): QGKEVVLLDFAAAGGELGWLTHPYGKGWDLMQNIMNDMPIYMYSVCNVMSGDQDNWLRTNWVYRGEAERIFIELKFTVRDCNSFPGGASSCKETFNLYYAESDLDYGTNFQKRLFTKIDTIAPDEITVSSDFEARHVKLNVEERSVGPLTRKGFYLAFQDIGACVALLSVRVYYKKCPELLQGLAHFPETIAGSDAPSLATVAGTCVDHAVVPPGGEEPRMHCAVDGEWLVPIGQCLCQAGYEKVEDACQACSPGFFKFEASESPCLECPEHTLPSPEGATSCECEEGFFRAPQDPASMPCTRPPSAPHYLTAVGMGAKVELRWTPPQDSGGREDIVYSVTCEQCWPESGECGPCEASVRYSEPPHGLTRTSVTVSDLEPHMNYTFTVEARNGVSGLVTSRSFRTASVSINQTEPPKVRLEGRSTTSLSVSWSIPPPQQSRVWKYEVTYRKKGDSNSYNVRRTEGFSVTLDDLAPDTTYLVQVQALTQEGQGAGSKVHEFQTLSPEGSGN

[2] = target: Rat EphA2 (in house, 1.4 mol biotin/monomer) (Rat) (UniProt D3ZBN3); experiment: SPR (Biacore), biotinylated rat EphA2 on streptavidin chip
[3] = target: Mouse EphA2 Fc fusion (R&D Systems 639-A2) (Mouse) (UniProt Q03145); experiment: SPR (Biacore), mouse EphA2-Fc captured by anti-human IgG
Chain of Mouse EphA2 Fc fusion (R&D Systems 639-A2) (Mouse) (Q03145 26-538): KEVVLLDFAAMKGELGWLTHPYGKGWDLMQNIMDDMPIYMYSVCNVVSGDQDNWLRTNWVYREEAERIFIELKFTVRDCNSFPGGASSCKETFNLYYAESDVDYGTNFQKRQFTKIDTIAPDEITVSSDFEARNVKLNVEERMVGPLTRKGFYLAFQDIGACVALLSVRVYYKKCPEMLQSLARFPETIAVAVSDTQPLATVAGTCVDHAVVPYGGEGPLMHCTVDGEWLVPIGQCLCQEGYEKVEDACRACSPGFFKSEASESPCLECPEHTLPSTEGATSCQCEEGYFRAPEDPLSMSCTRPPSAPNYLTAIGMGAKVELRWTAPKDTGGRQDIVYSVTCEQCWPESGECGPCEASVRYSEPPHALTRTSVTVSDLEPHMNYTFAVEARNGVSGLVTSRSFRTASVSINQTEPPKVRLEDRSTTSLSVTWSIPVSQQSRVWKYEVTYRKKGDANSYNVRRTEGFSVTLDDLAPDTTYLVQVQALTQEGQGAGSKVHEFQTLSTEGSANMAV

Mouse EphA2 (Ecto) = target: T1, Mouse EphA2 (Ecto) (Mouse, UniProt Q03145 26-538); experiment: FP competition vs Reference Compound C
T1 construct: extracellular domain
T1 sequence (Q03145 26-538): as above

| Kd [1] | koff [1] | kon [1] | t1/2 [1] | Kd [2] | koff [2] | kon [2] | t1/2 [2] | Kd [3] | koff [3] | kon [3] | t1/2 [3] | Ki (Mouse EphA2 (Ecto)) | Binder |
| --- | --- | --- | --- | --- | --- | --- | --- | --- | --- | --- | --- | --- | --- |
| 1.99 nM | 0.00495 s⁻¹ | 2.49e+06 M⁻¹ s⁻¹ | 2.3 min |  |  |  |  |  |  |  |  |  | {DM1‑SS‑}-[βAla][Sar][Sar][Sar][Sar][Sar][Sar][Sar][Sar][Sar][Sar]A[hArg]DCPLVNPLCLHPGWTC (linker 15-22-29 via TATA; not fully specified (C-terminus)) [BCY6031] |
| 2.1 nM | 0.00527 s⁻¹ | 2.52e+06 M⁻¹ s⁻¹ | 2.2 min |  |  |  |  |  |  |  |  |  | {DM1‑SS‑(Me)‑}-[βAla][Sar][Sar][Sar][Sar][Sar][Sar][Sar][Sar][Sar][Sar]A[hArg]DCPLVNPLCLHPGWTC (linker 15-22-29 via TATA; not fully specified (C-terminus)) [BCY6032] |
| 3.41 nM | 0.00343 s⁻¹ | 999000 M⁻¹ s⁻¹ | 3.5 min | 166 nM | 0.00442 s⁻¹ | 26700 M⁻¹ s⁻¹ | 2.6 min | 21.8 nM | 0.00637 s⁻¹ | 292000 M⁻¹ s⁻¹ | 1.8 min |  | {MMAE-PABC-Cit-Val-Glutaryl}-[βAla][Sar][Sar][Sar][Sar][Sar][Sar][Sar][Sar][Sar][Sar]A[hArg]DCPLVNPLCLHPGWTC (linker 15-22-29 via TATA; not fully specified (C-terminus)) [BCY6033] |
| 1.64 nM | 0.00365 s⁻¹ | 2.23e+06 M⁻¹ s⁻¹ | 3.2 min |  |  |  |  |  |  |  |  |  | {MMAE-PABC-Cit-Trp-Glutaryl}-[βAla][Sar][Sar][Sar][Sar][Sar][Sar][Sar][Sar][Sar][Sar]A[hArg]DCPLVNPLCLHPGWTC (linker 15-22-29 via TATA; not fully specified (C-terminus)) [BCY6034] |
| 2.42 nM | 0.00242 s⁻¹ | 987000 M⁻¹ s⁻¹ | 4.8 min | 28.8 nM | 0.00364 s⁻¹ | 126000 M⁻¹ s⁻¹ | 3.2 min | 18.3 nM | 0.00597 s⁻¹ | 327000 M⁻¹ s⁻¹ | 1.9 min |  | {DM1‑SS(SO3H)‑}-[βAla][Sar][Sar][Sar][Sar][Sar][Sar][Sar][Sar][Sar][Sar]A[hArg]DCPLVNPLCLHPGWTC (linker 15-22-29 via TATA; not fully specified (C-terminus)) [BCY6082] |
|  |  |  |  |  |  |  |  |  |  |  |  | 7.27 nM | ACPLVNPLCLHPGWTCLHG (linker 2-9-16 via TATA; not fully specified (C-terminus)) [Bicycle Compound 73] |
